According to patent US20120129720, “APTAMER THAT RECOGNIZES PEPTIDE” (KANAGAWA PREFECTURAL HOSPITAL ORGANIZATION, published 2012):

B1: #718 (ssRNA)
RNA: GGGACGCUCACGUACGCUCACUUCUUUCCCACUCACGUCUCGGUUUUAUUGGUCCAGUUUUCAGUGCCUGGACGUGCAGU
modifications: 3' A20 tail for capture
B2: #746 (ssRNA)
RNA: GGGACGCUCACGUACGCUCAGGUGAAUUGGCACUUCUUUAUCUACGGAUCGAGUCGGAUGUCAGUGCCUGGACGUGCAGU
modifications: 3' A20 tail for capture
B3: #701 (ssRNA)
RNA: GGGACGCUCACGUACGCUCACCGGGUUAUUGGCGCAAUAUUGGUAUCCUGUAUUGGUCUGUCAGUGCCUGGACGUGCAGU
modifications: 3' A20 tail for capture
B4: #708 (ssRNA)
RNA: GGGACGCUCACGUACGCUCACGGUUAUUGGCGGAGGAUCUGUCAUGGCAUGCCUCGACUGUCAGUGCCUGGACGUGCAGU
modifications: 3' A20 tail for capture
B5: #727 (ssRNA)
RNA: GGGACGCUCACGUACGCUCACUCAGGUGAUUGGCGCUAUUUAUCGAUCGAUAAUUGAAUGUCAGUGCCUGGACGUGCAGU
modifications: 3' A20 tail for capture
B6: #714 (ssRNA)
RNA: GGGACGCUCACGUACGCUCAGGUUUAUUGGUGCCGUGUAGUGGAAUAUCAGUGCCUGGACGUGCAGU
modifications: 3' A20 tail for capture
B7: #716 (ssRNA)
RNA: GGGACGCUCACGUACGCUCACCUGUUUUGUCUAGGUUUAUUGGCGCUUAUUCCUGGAAUGUCAGUGCCUGGACGUGCAGU
modifications: 3' A20 tail for capture
B8: #704 (ssRNA)
RNA: GGGACGCUCACGUACGCUCAUGUUCCUUUGGGUUAUUGGCUCCUUGUUGACCAGGGGAUGUCAGUGCCUGGACGUGCAGU
modifications: 3' A20 tail for capture
B9: #713 (ssRNA)
RNA: GGGACGCUCACGUACGCUCACAACACUCGAAGGGUUUAUUGGCCCCACCAUGGUGGAAUGUCAGUGCCUGGACGUGCAGU
modifications: 3' A20 tail for capture
B10: #733 (ssRNA)
RNA: GGGACGCUCACGUACGCUCACUUCCCUAGACCCUCCAGGUUACAGGCGCCGCCCGGAAUGUCAGUGCCUGGACGUGCAGU
modifications: 3' A20 tail for capture
B11: #7007 (ssRNA)
RNA: GGGACGCUCACGUACGCUCAGAGAUCGUUCUGGUUAUUGGCGCCUUCUGAUAAAGGAAUGUCAGUGCCUGGACGUGCAGU
modifications: 3' A20 tail for capture
B12: #7008 (ssRNA)
RNA: GGGACGCUCACGUACGCUCAUUGUCUUGGUGUAUUGGUUACUGUCCAAUGGGCGGUGUAUUCAGUGCCUGGACGUGCAGU
modifications: 3' A20 tail for capture
B13: #7034 (ssRNA)
RNA: GGGACGCUCACGUACGCUCAAAAUGCUGUUGCAGGUUAUUUGGCUCUCGGUCUGAGAAUGUCAGUGCCUGGACGUGCAGU
modifications: 3' A20 tail for capture
B14: #707 (ssRNA)
RNA: GGGACGCUCACGUACGCUCACGGUGGAUUGGCGACGAUGACCUUGAUAGUCCUCGUAAUGUCAGUGCCUGGACGUGCAGU
modifications: 3' A20 tail for capture
B15: #715 (ssRNA)
RNA: GGGACGCUCACGUACGCUCAUAGAGUGUAUUUGUACCAGGUAUACUGGCGCGAACGAAUGUCAGUGCCUGGACGUGCAGU
modifications: 3' A20 tail for capture
B16: #719 (ssRNA)
RNA: GGGACGCUCACGUACGCUCAGCUCUCUUACUUCCUGGGUGACUGGCUCUUUCGGGGUAUGUCAGUGCCUGGACGUGCAGU
modifications: 3' A20 tail for capture
B17: #723 (ssRNA)
RNA: GGGACGCUCACGUACGCUCAGGUUAUUGGCGCCCUCGAACCAAAAUGGAUGCCGGGAAUGUCAGUGCCUGGACGUGCAGU
modifications: 3' A20 tail for capture
B18: #725 (ssRNA)
RNA: GGGACGCUCACGUACGCUCACAUGUCCGGGUGGAUUGGAUCGAUUACUUGUUUUCGUUUAUCAGUGCCUGGACGUGCAGU
modifications: 3' A20 tail for capture
B19: #736 (ssRNA)
RNA: GGGACGCUCACGUACGCUCACCUCAAGUCGGGUCUAUUGUCUCCGGCGAAGCAUGGACUGUCAGUGCCUGGACGUGCAGU
modifications: 3' A20 tail for capture
B20: #745 (ssRNA)
RNA: GGGACGCUCACGUACGCUCAGAGCCACGGGUUUACUGGCGCUAAACAAAUGUUUAGGAUGUCAGUGCCUGGACGUGCAGU
modifications: 3' A20 tail for capture
B21: #748 (ssRNA)
RNA: GGGACGCUCACGUACGCUCAGCGCUUCUCGUUUGCUUUCCGGGUUCAUUGGUCCAUGUUUUCAGUGCCUGGACGUGCAGU
modifications: 3' A20 tail for capture
B22: #7004 (ssRNA)
RNA: GGGACGCUCACGUACGCUCAGGCGUUCUUCGCUGUAGUUCCGGUUUAUUGGUCUUUGUUUUCAGUGCCUGGACGUGCAGU
modifications: 3' A20 tail for capture
B23: #7015 (ssRNA)
RNA: GGGACGCUCACGUACGCUCAUGUCUCGGUUUAUUGGCGGUCGGACUUUUGCCCUGCGAUGUCAGUGCCUGGACGUGCAGU
modifications: 3' A20 tail for capture
B24: #7029 (ssRNA)
RNA: GGGACGCUCACGUACGCUCACGAAAUCCAGGUUUGAUUGGCGUGGCACCCUUGCCAAGUGUCAGUGCCUGGACGUGCAGU
modifications: 3' A20 tail for capture
B25: #7030 (ssRNA)
RNA: GGGACGCUCACGUACGCUCAAUGAGCUCACCUGGGUAAUUGGCGCCAAUUCAAGGGUCUGUCAGUGCCUGGACGUGCAGU
modifications: 3' A20 tail for capture
B26: #7049 (ssRNA)
RNA: GGGACGCUCACGUACGCUCACGCUCAGGUGAAUUGGUUACGUUUUCUCUGACAAUGUGGAUCAGUGCCUGGACGUGCAGU
modifications: 3' A20 tail for capture
B27: #7052 (ssRNA)
RNA: GGGACGCUCACGUACGCUCAAUUCUGUUCUGUCUCUCCGGGUUUACUGGCGCUAUGAAUGUCAGUGCCUGGACGUGCAGU
modifications: 3' A20 tail for capture
B28: #7054 (ssRNA)
RNA: GGGACGCUCACGUACGCUCAAAGUGUCUGCAAGUCUACCGGUUUAUUGGCCACUCCGUUUUCAGUGCCUGGACGUGCAGU
modifications: 3' A20 tail for capture
B29: #7009 (ssRNA)
RNA: GGGACGCUCACGUACGCUCAUGAUUGAAUGGGCGAAUCGACCUUACCGGUUUUCUGCAACUCAGUGCCUGGACGUGCAGU
modifications: 3' A20 tail for capture
B30: #7062 (ssRNA)
RNA: GGGACGCUCACGUACGCUCAUCUCGCCGCAUUUCCAGGUUUUUUGGCGCUUAUGAAUGAUCAGUGCCUGGACGUGCAGU
modifications: 3' A20 tail for capture

Molecular target: T1, His-MIF (His-tag/T7 gene 10 leader/Xpress-MIF fusion) (UniProt P14174 P14174:1-115)
T1 chain: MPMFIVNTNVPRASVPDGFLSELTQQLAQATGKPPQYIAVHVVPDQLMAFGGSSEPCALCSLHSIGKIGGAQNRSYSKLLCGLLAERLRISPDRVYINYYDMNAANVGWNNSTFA
Test: SPR; 600 nM His-MIF
Settings: MIF 115 aa; ATGen
Procedure: A molecular interaction between each of the RNA aptamers and each of fusion proteins, i.e., a binding ability of each of the RNA aptamers to each of the fusion proteins was analyzed using surface plasmon resonance. The analysis of the binding ability was performed using BiacoreX (GE Healthcare UK Ltd.) according to the instruction thereof. Specifically, first, polyadenine having 20 bases was added to the 3′-end of the RNA aptamer. Thus, polyadenine-added RNA aptamer was prepared. This was then heated at 95° C. for 5 minutes and rapidly cooled on ice. Biotinylated polythymine having 20 bases obtained by biotinylating the 5′-end of polythymine had been bound to a streptavidin chip (Sensor chip SA, GE Healthcare UK Ltd.). The polyadenine-added RNA aptamer was introduced into a flow cell on the streptavidin chip using a running buffer. At this stage, the polyadenine-added RNA aptamer was immobilized on the chip via the biotinylated polythymine by complementary binding between poly A of the polyadenine-added RNA aptamer and the biotinylated polythymine. The polyadenine-added RNA aptamer was caused to bind to the biotinylated polythymine until a resonance unit (RU) (resonance unit; 1 RU=1 pg/mm²) reaches 700 RU. Subsequently, HBS (Hepes Buffered Saline) containing the fusion protein with a predetermined concentration was introduced into the chip using a running buffer, and a signal (RU) was measured. The composition of the running buffer includes 10 mmol/L HEPES (4-(2-hydroxyethyl)-1-piperazine ethanesulfonic acid), 150 mmol/L sodium chloride, 0.1 mmol/L magnesium acetate, and 0.01% Tween (registered trademark) 20 (pH 7.2). As a control, an introduction of the fusion protein and a measurement of a signal were performed in the same manner as described above using a chip to which biotinylated polythymine had been bound, on which no polyadenine-added RNA aptamer had been immobilized.
A binding ability of each of the RNA pools in the respective rounds to His-MIF was analyzed by surface plasmon resonance in the same manner as in “1. (4) Molecular interaction analysis” of Example 1. […] N40 (control RNA) also was analyzed in the same manner as mentioned above.

| Binder | binding signal [His-MIF/RNA bonds] |
| --- | --- |
| B1 | 0.75 |
| B2 | 0.5 |
| B3 | 1.32 |
| B4 | 1.16 |
| B5 | 1.05 |
| B6 | 1.01 |
| B7 | 0.99 |
| B8 | 0.96 |
| B9 | 0.88 |
| B10 | 0.86 |

Molecular target: T1, His-MIF (His-tag/T7 gene 10 …)
Test: SPR; 600 nM His-MIF; data not shown
Settings: MIF 115 aa; ATGen

| Binder | binding result |
| --- | --- |
| B11 | binds |
| B12 | binds |
| B13 | binds |
| B14 | binds |
| B15 | binds |
| B16 | binds |
| B17 | binds |
| B18 | binds |
| B19 | binds |
| B20 | binds |
| B21 | binds |
| B22 | binds |
| B23 | binds |
| B24 | binds |
| B25 | binds |
| B26 | binds |
| B27 | binds |
| B28 | binds |
| B29 | binds |
| B30 | binds |
